Laboratory results from article PMC4188031.

What was measured:
Experiment in all cases: SPR (ProteOn XPR36, GLC chip), co-injection mode with pH shift
Conditions in all cases: pH 7.4; 25°C (stated for the immobilisation step; not restated for the binding runs); 150 mM NaCl (plus 20 mM Na-phosphate); PBS-TE: 20 mM Na-phosphate; association at pH 6.0, dissociation at pH 7.4
[1] = target: B21M anti-RSV IgG1, wild-type Fc (mAb WT) (UniProt P01857)
[2] = target: B21M anti-RSV IgG1 N434A N434A (EU numbering) (UniProt P01857)
[3] = target: B21M anti-RSV IgG1 N434Y N434Y (EU numbering) (UniProt P01857)

off-rate (koff) after pH shift 6.0 to 7.4 [1]: 0.07 1/s
off-rate (koff) after pH shift 6.0 to 7.4 [2]: 0.09 1/s
off-rate (koff) after pH shift 6.0 to 7.4 [3]: 0.02 1/s
Substance: neonatal Fc receptor (rat FcRn, rFcRn)
